# Reference: US20150376261A1 (VIB VZW, published 2015)
# B1: Nb10 (VHH)
# VHH: QVQLQESGGGLVQPGGSLRLSCAASGSFRSIVSMAWYRQAPGKQRELVASSNSGGSTNYADSVKGRFTISRDNAKNTVYLQMNSLKPEDTAVYWCNVQNRLPGFDAFSGRSIAETYWGQGTQVTVSS
# notes: also called CA4910; irrelevant Single-domain antibody
# B2: Nb69 (VHH)
# VHH: QVQLQESGGGLVQAGGSLRLSCTASGLTLSNYAMGWFRQAPGKEREFVAADTWNGNTYHQDSVKGRFTISRDNAKNTVYLQMNYLKPEDTAVYYCAARGSRRSAYYSSSDYTYRGQGTQVTVSS
# notes: Described as specific for the rat muscarinic receptor M3; Used as the mock fusion partner and as an exogenously added control; also called CA5669; mock Single-domain antibody
# B3: Nb33 (VHH)
# VHH: QVQLQESGGGLVRPGGSRRLSCVDSERTSYPMGWFRRAPGKEREFVASITWSGIDPTYADSVADRFTISRDVANNTLYLQMNSLKHEDTAVYYCAARAPVGQSSSPYDYDYWGQGTQVTVSS
# Columns and labels:
# [1] = target: T1, human mu-opioid receptor (hMor1) (human, UniProt P35372 6-360); assay: not described
# T1 construct: This is the receptor moiety as it stands in the hMor1-34GS-Nb fusions, preceded by Flag and followed by the 3C site, the 34GS linker, a Nanobody and His6
# T1 sequence (P35372 6-360, tags or fused parts left off): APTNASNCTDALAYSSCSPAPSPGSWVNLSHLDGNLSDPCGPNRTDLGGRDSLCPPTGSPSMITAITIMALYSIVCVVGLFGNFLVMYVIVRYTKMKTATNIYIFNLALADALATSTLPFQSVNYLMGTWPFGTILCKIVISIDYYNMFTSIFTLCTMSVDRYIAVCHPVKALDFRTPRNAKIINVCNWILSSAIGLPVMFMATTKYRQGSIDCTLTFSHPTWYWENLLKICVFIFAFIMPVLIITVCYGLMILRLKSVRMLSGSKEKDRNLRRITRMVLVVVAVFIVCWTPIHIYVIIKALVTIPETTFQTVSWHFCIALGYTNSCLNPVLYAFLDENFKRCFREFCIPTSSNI
# β2AR365N = target: T2, β2AR365N (human, UniProt P07550 2-365); assay: not described
# T2 construct: also called non-fused β2AR365N; human β2 adrenergic receptor Gly2 to Gly365, N187E
# [2] = target: T1, human mu-opioid receptor (hMor1); assay: cell-based or functional assay
binder,measurement,setting,value
B1,binding result,[1],no binding
B2,binding result,β2AR365N,no binding
B3,"IC50 ratio, Dmt1-Dalda: hMor1-34GS-Nb10 versus hMor1-34GS-Nb33 fusion ([3H]-diprenorphine competition, Sf9 membranes; Nb fused to the receptor)",[2],36 ratio
same,"IC50 ratio, KGOP01: hMor1-34GS-Nb10 versus hMor1-34GS-Nb33 fusion",[2],20 ratio
same,"IC50 ratio, naloxone: hMor1-34GS-Nb10 versus hMor1-34GS-Nb33 fusion",[2],2 ratio
